Measured values published in PMC10869706, “Chp1 is a dedicated chaperone at the ribosome that safeguards eEF1A biogenesis” (Nature Communications, 2024).

B1: Chp1 (in yeast cells expressing V5-eEF1A) [yeast (S. cerevisiae)] / WT eEF1A (V5-TEF2) [yeast (S. cerevisiae)] (parent complex)
chain 1: MSTFNAETADNLEDIEKQFAVVAVEQAETYWKLLTSVPGSKLRLTKFDDEIYENFMERFPEYKDVERVKKFTEEELKTKEAKERWRKFFTIFEKKIEDYNFGTLLRTDASAEYGQFTTCFVVRLQFYAFEIARNKHGLNDWIVGQK
chain 2: MGKEKSHINVVVIGHVDSGKSTTTGHLIYKCGGIDKRTIEKFEKEAAELGKGSFKYAWVLDKLKAERERGITIDIALWKFETPKYQVTVIDAPGHRDFIKNMITGTSQADCAILIIAGGVGEFEAGISKDGQTREHALLAFTLGVRQLIVAVNKMDSVKWDESRFQEIVKETSNFIKKVGYNPKTVPFVPISGWNGDNMIEATTNAPWYKGWEKETKAGVVKGKTLLEAIDAIEQPSRPTDKPLRLPLQDVYKIGGIGTVPVGRVETGVIKPGMVVTFAPAGVTTEVKSVEMHHEQLEQGVPGDNVGFNVKNVSVKEIRRGNVCGDAKNDPPKGCASFNATVIVLNHPGQISAGYSPVLDCHTAHIACRFDELLEKNDRRSGKKLEDHPKFLKSGDAALVKFVPSKPMCVEAFSEYPPLGRFAVRDMRQTVAVGVIKSVDKTEKAAKVTKAAQKAAKK

Variants of: B1
Assay: co-IP (IP α-V5, blot α-Chp1), quantified; parent: 1; read off a plot

| Variant | ratio to parent |
| --- | --- |
| chain 2 G70S | ~0.25 |
| chain 2 A125E | ~0.5 |
| chain 2 D91N | ~0.45 |

Next, values leading:

| ratio to parent | Variant |
| --- | --- |
| ~0.3 | chain 2 R264W |
| ~1.2 | chain 2 R421C |
| ~0.5 | chain 2 G382R |
| ~2.4 | chain 2 P331L |
